Source: patent publication US20230331827A1, “POTASSIUM CHANNEL INHIBITORS” (priority 2017, published 2023)

Legend:
[1] = test system: activated T cells in PBMCs; test: Cytokine and Granzyme-B secretion by anti-CD3 activated PBMCs (Luminex); type: cell-based; settings: 100 nM, 72 hours, 5 donors, compared to KB_A12
Method: Methods for measuring cytokine release from T cells are well known to those skilled in the art (eg Tarcha et al, (2012) J Pharmacology and Experimental Therapeutics, 342 p642-653). Peripheral blood mononuclear cells (PBMCs) were isolated from 5 healthy donors and were simulated by culturing in 96-well plates pre-coated with 500 ng/ml of the anti-CD3 antibody OKT3 (ebioscience, Cat. No. 16-0037-85). PBMCs were suspended at 2 × 10^6 cells/ml and 100 ul of cells suspension mixed with 100 ul of test sample (KB_A12_ShK) or positive control (free ShK toxin, Alomone labs, STS-400) or negative control (parental KnotBody KB_A12) at a final concentration of 100 nM. (Samples were in triplicate for KB_A12_ShK or duplicate for KB_A12 and free ShK). Cells were incubated at 37° C. for 72 hours, centrifuged at 1500 rpm for 5 mins at room temperature before removing 150 ul of supernatant. After 72 hours incubation, the concentration of cytokines and Granzyme-B was determined using a Luminex bead based assay according to manufacturers instructions (Thermo Fisher).

in vitro rat BBB model = test: In vitro rat BBB model transcytosis, sandwich ELISA of Fab in lower chamber; type: in vitro ADME; settings: test Fabs as oligoclonal mixes of 3 per well at 2 µM, controls 1 µM, value is per well
Method: In order to assess the ability of these KnotBodies to cross the BBB, a ready to use in vitro rat BBB model system (Pharmacocell, Cat. No. RBT-24H) was used. In this model system rat brain endothelial cells were co-cultured with pericytes and astrocytes to mimic the in vivo BBB anatomy (Nakagawa, S. et al. (2009) Neurochem. Int. 54, 253-263). The in vitro rat BBB kit was cultured according to manufacturer’s instructions and transendothelial electrical resistance (TEER) was measured prior to testing of KnotBodies to verify the integrity of the barrier. […] 21 KnotBody Fabs were tested for their ability to cross the in vitro BBB model system. […] The parent KnotBody KB_A12 was used as a negative control. Both positive and negative controls were expressed and purified in the Fab format as described above. […] The concentration of transcytosed Fabs in the lower chamber (referred as brain side) was determined using a sandwich ELISA. In this ELISA, Fabs were captured using an anti-CH1 antibody (provided by Hybridoma Reagent Laboratories) and detected using rabbit anti-human IgG Kappa light chain antibody (Abcam, Cat. No. ab195576) or anti-human IgG Lambda light chain antibody (Abcam, Cat. No. ab124719) followed by europium conjugated anti-rabbit antibody (Perkin Elmer, Cat. No. AD0105). […]

B1: KB_A12_ShK: ShK toxin in VL CDR2 of KB_A12, IgG1 (antibody, V domains shown)
VH: EVQLVESGGGLVRPGGSLRLSCAASGFTFSSYAMSWVRQAPGKGLEWVSAISGSGGSTYYADSVKGRFTISRDNTKNSLYLQMTSLRADDTAFYYCVKDFGPGYGTGWFDYWGPGTLVTVSS
VL: QSVLTQPPSVSEAPRQRVTITCSGSSSNIGNNAVNWYQQLPGKAPKLLIYAAGRRSCIDTIPKSRCTAFQCKHSMKYRLSFCRKTCGTCANSGVSDRFSAAKSGTSASLAINGLRSEDEADYYCAAWDDSLNGYVFGTGTKLTVLG
- Secretion of Granzyme B [1]: reduced
- Secretion of Interferon gamma [1]: reduced
- Secretion of TNF-alpha [1]: reduced
- Secretion of interleukin-17A [1]: reduced

B2: KB_A12: EETI-II knottin fused into VL CDR2, D1A12 VH; parental KnotBody, isotype control (antibody, V domains shown)
VH: EVQLVESGGGLVRPGGSLRLSCAASGFTFSSYAMSWVRQAPGKGLEWVSAISGSGGSTYYADSVKGRFTISRDNTKNSLYLQMTSLRADDTAFYYCVKDFGPGYGTGWFDYWGPGTLVTVSS
VL: QSVLTQPPSVSEAPRQRVTITCSGSSSNIGNNAVNWYQQLPGKAPKLLIYAAGRCPRILMRCKQDSDCLAGCVCGPNGFCGANSGVSDRFSAAKSGTSASLAINGLRSEDEADYYCAAWDDSLNGYVFGTGTKLTVLGQP
- % transcytosis after 6h (in vitro rat BBB model): 0.1%
